Biological target: mouse HGF receptor c-Met (endogenous in mouse hepatocytes and liver) (mouse) (UniProt P16056)
Test: cell-based or functional assay

Substance “full-length mouse MERMUC overexpressed in MERMUC-Tg mice (from UniProt Q8BUE7 22-656)” has a ratio of liver weight to body weight after transient overexpression of human HGF of 1.2 times.

Reference: US20050113284A1, “Drug for regenerating tissue and vessel and method therefor” (priority 2001, published 2005)
